Measured values: patent US20100016434

Target: T1, biotinylated HIF1α peptide, Q16665
T1 chain: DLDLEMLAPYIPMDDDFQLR

B1: EGLN3 in vitro translate (protein)
chain: MPLGHIMRLDLEKIALEYIVPCLHEVGFCYLDNFLGEVVGDCVLERVKQLHCTGALRDGQLAGPRAGVSKRHLRGDQITWIGGNEEGCEAISFLLSLIDRLVLYCGSRLGKYYVKERSKAMVACYPGNGTGYVRHVDNPNGDGRCITCIYYLNKNWDAKLHGGILRIFPEGKSFIADVEPIFDRLLFFWSDRRNPHEVQPSYATRYAMTVWYFDAEERAEAKKKFRNLTRKTESALTED
  EGLN3 prolyl hydroxylase activity on the HIF1α peptide, read by capture of 35S-labeled pVHL: EGLN3 hydroxylase activity was diminished in the face of increasing amount of succinate
